In PMC3899036, “Subunit Positioning and Stator Filament Stiffness in Regulation and Power Transmission in the V1 Motor of the Manduca sexta V-ATPase^☆” (Journal of Molecular Biology, 2014):

B1: Manduca sexta V-ATPase subunit E (natural protein, Manduca sexta (tobacco hornworm), UniProt P31402 1-226, looked up)
chain: MALSDADVQKQIKHMMAFIEQEANEKAEEIDAKAEEEFNIEKGRLVQQQRLKIMEYYEKKEKQVELQKKIQSSNMLNQARLKVLKVREDHVRNVLDEARKRLAEVPKDIKLYSDLLVTLIVQALFQLVEPTVTLRVRQADKALVESLLGRAQQDYKAKIKKDVVLKIDNENFLPPDTCGGIELIAAKGRIKISNTLESRLELIAQQLLPEIRNALFGRNPNRKFTD
notes: V-ATPase subunit E, Manduca sexta; 26 kDa on SDS-PAGE; Seen as part of the V1 complex in the cryo-EM reconstruction; also called subunit E of the E/G stator filaments S1-S3; source: endogenous, within V1 purified from Manduca sexta

Assays:
[1] = target: recombinant His6-tagged V-ATPase subunit C (Manduca sexta) (UniProt Q9U5N1); assay: SEC; V1 incubated with C-His6, Superose-6 column, 20 mM Tris-HCl, 100 mM NaCl, 10 mM KCl, 2 mM 2-mercaptoethanol, pH 8.0, 0.25 ml/min; fractions on SDS-PAGE with densitometry; apparent stoichiometry
recombinant His6-tagged V-ATPase subunit C (Manduca sexta), sequence (Q9U5N1 whole entry): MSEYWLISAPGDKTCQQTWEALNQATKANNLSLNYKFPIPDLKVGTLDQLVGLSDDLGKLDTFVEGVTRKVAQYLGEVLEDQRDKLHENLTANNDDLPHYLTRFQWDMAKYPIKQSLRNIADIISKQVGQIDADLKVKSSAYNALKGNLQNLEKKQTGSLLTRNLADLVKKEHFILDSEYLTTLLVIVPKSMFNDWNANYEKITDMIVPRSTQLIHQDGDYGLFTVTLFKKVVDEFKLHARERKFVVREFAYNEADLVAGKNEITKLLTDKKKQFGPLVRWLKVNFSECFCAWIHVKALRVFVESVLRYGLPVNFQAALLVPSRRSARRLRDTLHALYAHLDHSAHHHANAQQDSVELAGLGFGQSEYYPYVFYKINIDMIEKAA

[2] = target: T1, Manduca sexta V-ATPase subunit B (Manduca sexta (tobacco hornworm), UniProt P31401 1-494); assay: cryo-EM structure; V1 mixed with recombinant C for 1 h at 4 °C (1:5 V1:C molar ratio), Lacey grids, plunge-frozen; 20 Å reconstruction of V1(+C), homologous crystal structures fitted; details: both partners purified
T1 construct: V-ATPase subunit B, Manduca sexta; 56 kDa on SDS-PAGE; Seen as part of the V1 complex in the cryo-EM reconstruction; also called B subunits; source: endogenous, within V1 purified from Manduca sexta
T1 sequence (P31401 whole entry): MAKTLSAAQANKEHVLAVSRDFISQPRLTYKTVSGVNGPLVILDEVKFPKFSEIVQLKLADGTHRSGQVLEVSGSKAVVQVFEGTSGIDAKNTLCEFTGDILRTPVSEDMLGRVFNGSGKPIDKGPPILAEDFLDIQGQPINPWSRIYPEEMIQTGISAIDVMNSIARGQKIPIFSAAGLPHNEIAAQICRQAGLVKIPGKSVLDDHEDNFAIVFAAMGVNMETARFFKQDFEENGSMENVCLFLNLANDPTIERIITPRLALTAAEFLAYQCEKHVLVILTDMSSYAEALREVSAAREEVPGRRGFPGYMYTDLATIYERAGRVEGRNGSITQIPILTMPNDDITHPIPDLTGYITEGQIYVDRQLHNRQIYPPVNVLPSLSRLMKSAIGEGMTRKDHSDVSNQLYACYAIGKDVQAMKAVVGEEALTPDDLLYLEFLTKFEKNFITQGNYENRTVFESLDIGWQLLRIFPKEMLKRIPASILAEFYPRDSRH

Row | stoichiometry N (C per V1 (1 per H, 1 per 3 A)) [1] | binding result [2] | Molecule
1 | 1 |  | Manduca sexta V-ATPase V1 domain (deactivated, washed with 25% methanol to remove residual subunit C) (complex)
2 |  | binds | B1
